These results are taken from the DeepSol protein solubility set.

A short description of this series: soluble on expression in E. coli; label from the status in PepcDB or PDB records.
As to “MSLKSSEQMRALFPDHPEACDNTLLLTEMIGSYDEVFKYVDRMPQFDVPEGETQESWLRKKLQEGLDEKFGPNPPKEVLERLETELSVIEPLGFASYFLVVSDICNAARSMGVPVGPGRGSAAGSLVAYLTGIIAINPLEHGLLFERFLNPERVNPPDIDLDFDDRQRDKVIDYVTHKYGAEYTSQVNTFGKIKAKAAVKDANRILGYPFALGDKITKAMPPDVMGKGVPLDKIFDSSHERYGEGQEFRQLVADNPDVAKVVETAKGLEGLIRGTGVHACAFILSSTPLLDLVPMHKRDKDGMIIAGFAYPQLEEMGLMKMDFLGLRNLGIMDHCIKIIKANRGIDVDLKNIALDDKTTYEMLARGDTLGVFQLDGTAMRSLLRLMGPTCFDDIVAVLALYRPGPMGANAHISYAQRKNNREPIIPIHPELKEDLDEILAPTYHLIVYQEQIMSIARKLAGYTLGGADLLRRAMGKEGHHHHHH”, the “soluble on expression in E. coli” value is recorded as “soluble”.

“MIKKITISDLIRMGDEKEREWFMFHAEVERIFNDTEIVGIKYQATITYVIGELDEDVLNTVFESNWNKTAEVLKKHEIEVEDIKIDKNEKKVEIKLKTSGIVYREGLFEFEDIKELLKDVLARKIEEAWISVLQEHGYILEHHHHHH”: the “soluble on expression in E. coli” value is on record as “soluble”.

Regarding “METKDLIVIGGGINGAGIAADAAGRGLSVLLLEAQDLACATSSASSKLIHGGLRYLEHYEFRLVSEALSERETLLKMAPHIIFPMRFRLPHQPHLRPAWMIRIGLFMYDNIGKRVSLPASKGLKFGADSVLKPELKQGFEYSDCWVDDARLVVLNAQEVAKRGGEVRTRTKVTRARREQGVWIVDAVDSLTGETFTWRAKGLVNATGPWVKEFFDDGLQLKSPYGIRLIKGSHIVVPRVHNQPQAYILQNKDHRIVFVIPWQDDYSIIGTTDVEYKGNPHDVKIDDNEVGYLLDVYNDHFKQQLTRDDIVWTYSGVRPLCDDESDSPQAITRDYTLSVDDDNGQAPLLSVFGGKLTTYRKLAEHALDKLHKYYPQAGKAWTKDAVLPGGDIAGTRDDYAAALRRRFNLPESLTRRYSRTYGSNSELILANVKGLSDLGEDFGHDLYEAELRYLVEKEWAVTLDDVIWRRTKLGMRFDDAQKQRISDWLVSYRQQQMAKAGLEHHHHHH”, the “soluble on expression in E. coli” value is on record as “soluble”.

In the case of “MARTAVPDNQPEITGFRIVLNNFEGPFDLLLQLISAKKLDVTDVALHKVTDDFVAYTRALGEFAELDEVTEFLVVAATLLDLKAARLLPRGEVDDLSDLELLESRDLLFARLLQYKAYKQVADQFARWQLAAQRRYPRAVGMEEQFSSLLPPVKISHTPKSFAELAASVFRPKPPDTVGTSHVHGVEVSVPEQAGKVLDLLVECGEGVWMDFPDLITGCRVSLEVVGRFLALLELYKARAVSLEQEESLGALRVSWTGIHVDPAIVAASNWA”, the “soluble on expression in E. coli” value is “not soluble”.

On to “MCMDEIKKWKNVKAKKITETLNKRHFKASYVETLEEAKEKLISMIEEGSSVAIGGSTTLSQMGMVDVLRNGNYKFFDRYQNLPFDPDIVEIHRKSLTADYLITGTNAITENGELVNTDCTGNRVAPMIFGPKNVIIVAGINKIVENIDAALKRIREIAPMNSKRIKHETPCVETGFCVDCDCKKRICNFTTIIHNGIKFEGRIKIIIIADELGYLEHHHHHH”, for which the “soluble on expression in E. coli” value is “not soluble”.

Take “MAANGVATLNSSGKLAQMPSASDVGALPITGGEMQGALKLKANQYGGSGPADEKYALDCQNSNIVNVNRILTADPAGSASEGWGFQREDDPDAYDVIWASNGTLYFTPGFKYNTPPYPANQRVLATTDNIALTNYLRQEYNKLKESEGTPTLNDIINGFGFCYNDSSNGAGLDGTYLTVSGMLDNKYRLQLLGQYNGSNWLAYRTRNGDEQSWNPWHKVLTDNINAAISARHQYTSSSYPQIYGNGILQLGGDSRNEYGVVLRSNGTDEANAFRPSVNAGTTGHLYLGVANQKWRAVFAQNGTIQTSDRNAKHDITDLDPEKITAFIMGLKPSSYVFNDADSGRTHWGLISQDIEELFPQLGMTSMDFAGFIKSPKTEDYYEDVPETVTDEETGEEKTVTRKELKTRTVEGEYIYSLRYDEFIAPLICMVQRQQRQIEYLERRLSASESKEEAKLEHHHHHH”: the “soluble on expression in E. coli” value is on record as “not soluble”.

Regarding “MGSDKIHHHHHHMLITNVRPWGGDNVDLEVHEGRIAAVHPAGTGDVSADAAGGTIDGRGRIAFPAFTDVHVHLDSTRIGLPFREHTASPGVWNMMCNDRENWRDTPIPYADVVAGTLERMIARGTTRVRSYAQIDVDCKLERFEAVLAAKERFAHAAEVEVMAFPQAGLLLEDGTVPLLEEALRAGATTIGGIDPCQLDRDPARHLDIVFELAEKYGVDVDIHLHEPGHLGVFSAELIFERTRALGMQGRVSLSHAYDLANVHPDVTARIVEQMAELDVAWATVAPASGGAQFDLARMTEAGIRVGLGEDGQRDYWSPYGNCDMLDRTWQLAFTHRLRKDRLIEHCAAIATVGGASIMDRTVPRLTSPDDRPGLTPGDRADVVLVDGETVTSTVMDRGTDRTVIHDGRLVADGLAVLPRAAG”, the “soluble on expression in E. coli” value is “not soluble”.

On to “AHHHHHHGSVRIEVVDIEKPEGVEVIIGQGNFSIFTVDDLARALLTTVPGIKFGIAMNEAKPQLTRYTGNDPELEKLAAKNALKIGAGHVFVILMKNAYPINVLNTIKNHPAVAMVYGASENPFQVIVAETELGRAVIGVVDGKAATKIETEEQKKERRELVEKIGYKID”, for which the “soluble on expression in E. coli” value is given as “not soluble”.

Take “MKRGKQTCKILKDIRRQIAEANDIEFITSECQYQGDCLGTCPKCEAEVRYLEQQLERKRMAGKAITILGISAGLVAMAPMTSCSSSPNKGTNQETISDSTNASVMFGEICPTPVEDTIPMVEKDTVNKQELPELPQEMGLIEITPISGDIITVKDSLSEKDSLTDVLEVAAVMPEFPGGARELMKFISANIRYPSMSQGGVCQGRAIVQFIVDKEGNIVQPKVVRGVDPYLDKEALRVVGLMPKWKPGELDDGTKVAVRFTIPVMFRLQ”: the “soluble on expression in E. coli” value was “not soluble”.

Consider “MYCDHFGFSEHPFALTPNPAFLFLSSRHQEAFAHLLYGIDTRAGFIELSGEVGTGKTTVIRTFLNQLDPETHRTALVFNPTVSPLGLLQGIIREFGLPGTSTEKSELLETLNRFLLDENRAGHTVVLVIDEAQNLSPEVLEQIRLISNLETERDKLIQIVLVGQPELRHLLARQELRQLDQRITVRYHLEPMGLDDTKNYIRHRIRIAAGGREPVIFSAGAVKKIFGFSGGLPRLINAACDRALLLAYTTEAREVSPAMAAAAIADVATEARPPSPSRRFAVAAALILVAALGAGTFAVTRKGGESLPSASPPPTEPAASGEQPLKRTAALAGLAAVPEKDNLSAAVNTILRSWQAPPVASSPSPADLRSLARERGLTVTELSGTLNDLARLDTPALLHITLPQGGKRLVALTSLDKGHIGIDPPIAGHSTLTGGELSTLWSGRASVIWKNFHGIPSRLKPGGRSKAVGQLQELLKGAGYYAGRISGTYDTVTQEAIRSFQTAEGLDADGRTGEKTLLLLYRRAGGFFPPGLTQGKTAARTEAGDRSRGKVAQTRSNGEQSRLEHHHHHH”, for which the “soluble on expression in E. coli” value is reported as “not soluble”.

As to “MEPGLDGGYLLLGVDWAINDKGDTVYRPVGLPDPDKVQRDLASQCASMLNVALRPEMQLEQVGGKTLLVVYVPEADVTHKPIYKKATGLPGGAYRRIGSSDQRCVDEDLWVLRGLEHHHHHH”, the “soluble on expression in E. coli” value is on record as “not soluble”.

In the case of “LEAVAPERPRCAYCSAEASKRCSRCQNEWYCCRECQVKHWEKHGKTCVLAAQGDRAK”, the “soluble on expression in E. coli” value was “soluble”.

As to “MFKRIGLISIALSLNTISFTSEACSALVFNKNKPATVAVNLDWKYREGAFVIHPRNAMMVSSVDYHSMHPLIWKSQYGSVIFHGGNRFKAGPSADGMNEKGLTASILMLDSSIYPSNSELPALKTTEWVQYILDNFQTVQEVIDDSSNYQLVADTYRGITMNVHLMVSDAEGKSAVFEYLDGKLVIHTQDNLTTPVLTNTDYKLSLALLEEYQDHGGSKALPGGYDSKSRFVRAAHYLKKLPSFIAKEEHIAYAFNGLNVVTQAPGTSSPTQLSMVFDIPTKTIYFRSINEAALRVIPMDSIDFDYLYQPIALNVYQHLSGDVTDKFQPMIG”, the “soluble on expression in E. coli” value is recorded as “not soluble”.

For the sequence “MKTSEWIDISQPLNNNIATWPGDTPFSYEVSWSKEESGSVNVGKLTMSIHTGTHIDAPFHFDNDGKKVLDLDVQVYVGPARIIDVSNLESIGKKELESFHLEGVERLLLRTSSHGKAEEFPEVIPHLRADIASFLSEKGIRLIGVDVPSVDPLDDKELAAHHQLFKHGIHILENVVLDHVADGDYELIALPLALTDADGSPVRAVIRPILEHHHHHH”, the “soluble on expression in E. coli” value is given as “soluble”.

For the sequence “MRTFDLTAALGDRANQPEISRLLVAQLMTSNNEDTRKLRRAQEREQTQELNELAHRLAGMASLIHAHAVERACHQLEIACGESSVRKLADAVDDLVTALGELQCELHDWMTMTAPQGTAKS”, the “soluble on expression in E. coli” value is listed as “not soluble”.

In the case of “MNDFTTEIVQTLVTKGDLNELFRSHLEKAINTLLRTELTAFLDYEKYDRTGFNSGNSRNGSYFRSIKTEYGELTLEIPRDRNGEFKQQTLPAYKRTNDTLETTIIHLFEKGVTMSEIADLIEKMYGHHYTPQTMSNMTKVLTEEVNAFKSRALNDKYVAIFMDATYIPLKRQTVSKEAIYIAIGIREDGTKEVLSYAIAPTESTYVWNELLQDINSRGVQEVLLFITDGLKGMKDTIHQIYPKAKYQHCCIHVSRNIAHKVRVKDRKEICDDFKAVYQANSKEEANTFLSGMIEKWKKNYPKVTQSLIENQDLLTFYDFPPSIRRTIYSTNLIESFNKQIKRYSRRKEQFQNEESLERFLVSIFDTYNQKFLNRSHKGFQQVTDTLVSMFTE”, the “soluble on expression in E. coli” value is reported as “not soluble”.

With “MGSDKIHHHHHHMWQAISRLLEEHHGTADIQEHRELPGGEIHPAWYVRYGEHDVFVKCDSREMLAKFTAEADQLHLLSRSNTVRVPKVYGVGSSRDYSFLLLQYLPVKPLDAHSAWCLGEQLARLHQWSDQPQFGLDFDNDLSTTPQPNSWQRRWATFFAEQRIGWQLQLAAEKGMHFGHIETLIARVDERLAGHQPQPSLLHGDLWPDNCANSQDGGYLFDPACYWGDRECDLAMLPRYPALPAQIYDGYQSVWPLDKDFIDRQPIYQIYYLLNRANLFGGKNIVEAQQLIERQLLS”, the “soluble on expression in E. coli” value is listed as “not soluble”.

Take “MPNITWCDLPEDVSLWPGLPLSLSGDEVMPLDYHAGRSGWLLYGRGLDKQRLTQYQSKLGAAMVIVAAWCVEDYQVIRLAGSLTARATRLAHEAQLDVAPLGKIPHLRTPGLLVMDMDSTAIQIECIDEIAKLAGTGEMVAEVTERAMRGELDFTASLRSRVATLKGADANILQQVRENLPLMPGLTQLVLKLETLGWKVAIASGGFTFFAEYLRDKLRLTAVVANELEIMDGKFTGNVIGDIVDAQYKAKTLTRLAQEYEIPLAQTVAIGDGANDLPMIKAAGLGIAYHAKPKVNEKAEVTIRHADLMGVFCILSGSLNQK”: the “soluble on expression in E. coli” value is “not soluble”.

Turning to “MGSDKIHHHHHHCSDDDSVNEWDMSYVSLLPADYLRPTPSFTLKHVEEEGIEGSVEFQFMATTQKAVTQDINVHYSVTCDGIDANKINLSAKNLLIKAGSTASEPITLSITDWKYLENTKEALEYTLKIKIADIESTSAEVTNAAYYQEIVLKISKTAEKKKESVLLTNVKDWIFTFMTGVENSASNSVAGTGTNDVATNGVPFWLTVDFKEVKNVTGVQTTHWGAGYAPSKVEIFSSENGDDWVSIGQWDTKGRTQTITFDERVKTRYLKYQMITVPSRVDITRFYIYAW”, the “soluble on expression in E. coli” value is reported as “not soluble”.

“MDDLTIEILTDDADYDLQRFDCGEEALNLFLTTHLVRQHRNKILRAYILCRNTPERQVLGYYTLCGSCFERAALPSKSKQKKIPYKNIPSVTLGRLAIDRSLQGQGWGATLVAHAMNVVWSASLAVGIHGLFVEALNEKAHTFYKSLGFIPLVGENENALFFPTKSIELLFTQSD”: the “soluble on expression in E. coli” value was “not soluble”.
